Patent publication EP0866075B1, “Method to treat microbial infections by uncoupling of phosphotransferase system and appropriate agents therefor” (Arpida AG,, priority 1997, dated 1998)

Molecular target: enzyme I (phosphoenolpyruvate-protein phosphotransferase, EC 2.7.3.9) of the E. coli phosphotransferase system (E. coli) (UniProt P08839)
Test: cell-based or functional assay

HPr protein (phosphorylcarrier protein HPr) (from UniProt P0AA04 1-85)
uncoupling P;Ipeptide/h: 2.7 Pi/peptide/h
